Assay results reported in patent US20040038290A1 (ROCKEFELLER UNIVERSITY, published 2004).
Blank lines part the entries; values can stand above or below the molecule they belong to.

Legend:
[1] = molecular target: E. coli Pol III (Escherichia coli) (UniProt P10443); experiment: cell-based or functional assay
[2] = molecular target: human DNA polymerase delta (human) (UniProt P28340); experiment: cell-based or functional assay
[3] = molecular target: T1, Aquifex aeolicus α subunit of DNA polymerase III (Aquifex aeolicus, UniProt O67125 1-1161); experiment: complex constitution from pure subunits, column chromatography
T1 construct: Recombinant, expressed in E. coli from pETAadnaE (pET24); also called A.ae. α; Aquifex α
T1 sequence: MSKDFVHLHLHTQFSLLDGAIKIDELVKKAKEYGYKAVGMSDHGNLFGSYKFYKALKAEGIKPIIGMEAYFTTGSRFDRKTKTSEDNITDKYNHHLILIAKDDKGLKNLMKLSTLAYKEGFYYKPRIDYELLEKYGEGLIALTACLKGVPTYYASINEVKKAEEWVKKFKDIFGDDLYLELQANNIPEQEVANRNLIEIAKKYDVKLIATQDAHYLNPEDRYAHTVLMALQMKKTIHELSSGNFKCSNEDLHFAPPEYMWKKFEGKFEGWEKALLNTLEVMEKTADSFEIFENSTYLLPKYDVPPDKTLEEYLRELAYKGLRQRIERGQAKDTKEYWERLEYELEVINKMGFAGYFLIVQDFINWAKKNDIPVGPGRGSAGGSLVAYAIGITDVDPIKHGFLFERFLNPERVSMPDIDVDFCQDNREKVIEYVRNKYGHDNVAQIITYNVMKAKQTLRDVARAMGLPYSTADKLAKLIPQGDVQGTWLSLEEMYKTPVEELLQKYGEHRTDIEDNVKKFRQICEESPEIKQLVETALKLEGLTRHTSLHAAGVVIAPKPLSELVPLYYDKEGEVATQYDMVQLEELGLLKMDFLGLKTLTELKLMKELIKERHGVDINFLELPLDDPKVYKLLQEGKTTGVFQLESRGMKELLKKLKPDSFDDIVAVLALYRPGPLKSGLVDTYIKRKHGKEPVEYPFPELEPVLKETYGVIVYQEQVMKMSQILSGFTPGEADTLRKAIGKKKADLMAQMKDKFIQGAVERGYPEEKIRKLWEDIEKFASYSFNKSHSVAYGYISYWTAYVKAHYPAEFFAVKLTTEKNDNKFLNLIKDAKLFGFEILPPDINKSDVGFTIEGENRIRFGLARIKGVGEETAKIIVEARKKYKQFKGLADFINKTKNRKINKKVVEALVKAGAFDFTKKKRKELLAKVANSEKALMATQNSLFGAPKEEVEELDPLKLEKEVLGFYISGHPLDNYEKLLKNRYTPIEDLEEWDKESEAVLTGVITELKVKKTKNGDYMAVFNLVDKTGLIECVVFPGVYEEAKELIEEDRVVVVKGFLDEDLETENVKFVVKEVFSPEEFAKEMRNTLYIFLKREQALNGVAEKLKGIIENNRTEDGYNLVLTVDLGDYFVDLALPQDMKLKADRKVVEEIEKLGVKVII

[4] = molecular target: Thermus thermophilus DNA polymerase III purified from T.th. cell extracts; experiment: cell-based or functional assay

Chain of human DNA polymerase delta (human) (P28340 whole entry, stated change not applied): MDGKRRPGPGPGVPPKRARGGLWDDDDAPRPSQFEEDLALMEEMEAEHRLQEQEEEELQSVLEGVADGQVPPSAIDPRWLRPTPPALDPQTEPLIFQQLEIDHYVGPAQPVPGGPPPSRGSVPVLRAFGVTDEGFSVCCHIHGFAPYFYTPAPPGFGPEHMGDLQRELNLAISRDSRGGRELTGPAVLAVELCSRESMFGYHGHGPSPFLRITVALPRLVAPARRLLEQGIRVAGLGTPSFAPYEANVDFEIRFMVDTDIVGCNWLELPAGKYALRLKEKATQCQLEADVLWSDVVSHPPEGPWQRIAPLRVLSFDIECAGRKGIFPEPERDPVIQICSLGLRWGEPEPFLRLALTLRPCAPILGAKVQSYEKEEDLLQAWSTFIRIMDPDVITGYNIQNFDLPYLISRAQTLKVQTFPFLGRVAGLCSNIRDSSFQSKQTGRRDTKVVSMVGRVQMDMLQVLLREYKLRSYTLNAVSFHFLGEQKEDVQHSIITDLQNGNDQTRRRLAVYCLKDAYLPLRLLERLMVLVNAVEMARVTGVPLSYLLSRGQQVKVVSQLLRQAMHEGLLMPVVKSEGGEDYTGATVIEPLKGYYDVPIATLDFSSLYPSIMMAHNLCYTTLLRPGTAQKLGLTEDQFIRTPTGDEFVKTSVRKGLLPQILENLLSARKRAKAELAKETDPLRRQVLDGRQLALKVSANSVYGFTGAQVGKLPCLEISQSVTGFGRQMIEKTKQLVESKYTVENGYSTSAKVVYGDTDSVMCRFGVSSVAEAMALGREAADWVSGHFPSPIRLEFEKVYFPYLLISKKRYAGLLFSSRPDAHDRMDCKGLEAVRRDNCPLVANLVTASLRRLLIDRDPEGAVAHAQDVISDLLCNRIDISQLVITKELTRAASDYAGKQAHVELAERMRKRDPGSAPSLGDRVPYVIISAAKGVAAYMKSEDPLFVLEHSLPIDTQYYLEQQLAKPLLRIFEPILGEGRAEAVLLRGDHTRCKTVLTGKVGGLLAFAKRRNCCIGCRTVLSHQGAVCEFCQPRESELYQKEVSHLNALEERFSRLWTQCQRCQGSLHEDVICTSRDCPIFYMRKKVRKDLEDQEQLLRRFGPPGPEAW
Chain of E. coli Pol III (Escherichia coli) (P10443 whole entry): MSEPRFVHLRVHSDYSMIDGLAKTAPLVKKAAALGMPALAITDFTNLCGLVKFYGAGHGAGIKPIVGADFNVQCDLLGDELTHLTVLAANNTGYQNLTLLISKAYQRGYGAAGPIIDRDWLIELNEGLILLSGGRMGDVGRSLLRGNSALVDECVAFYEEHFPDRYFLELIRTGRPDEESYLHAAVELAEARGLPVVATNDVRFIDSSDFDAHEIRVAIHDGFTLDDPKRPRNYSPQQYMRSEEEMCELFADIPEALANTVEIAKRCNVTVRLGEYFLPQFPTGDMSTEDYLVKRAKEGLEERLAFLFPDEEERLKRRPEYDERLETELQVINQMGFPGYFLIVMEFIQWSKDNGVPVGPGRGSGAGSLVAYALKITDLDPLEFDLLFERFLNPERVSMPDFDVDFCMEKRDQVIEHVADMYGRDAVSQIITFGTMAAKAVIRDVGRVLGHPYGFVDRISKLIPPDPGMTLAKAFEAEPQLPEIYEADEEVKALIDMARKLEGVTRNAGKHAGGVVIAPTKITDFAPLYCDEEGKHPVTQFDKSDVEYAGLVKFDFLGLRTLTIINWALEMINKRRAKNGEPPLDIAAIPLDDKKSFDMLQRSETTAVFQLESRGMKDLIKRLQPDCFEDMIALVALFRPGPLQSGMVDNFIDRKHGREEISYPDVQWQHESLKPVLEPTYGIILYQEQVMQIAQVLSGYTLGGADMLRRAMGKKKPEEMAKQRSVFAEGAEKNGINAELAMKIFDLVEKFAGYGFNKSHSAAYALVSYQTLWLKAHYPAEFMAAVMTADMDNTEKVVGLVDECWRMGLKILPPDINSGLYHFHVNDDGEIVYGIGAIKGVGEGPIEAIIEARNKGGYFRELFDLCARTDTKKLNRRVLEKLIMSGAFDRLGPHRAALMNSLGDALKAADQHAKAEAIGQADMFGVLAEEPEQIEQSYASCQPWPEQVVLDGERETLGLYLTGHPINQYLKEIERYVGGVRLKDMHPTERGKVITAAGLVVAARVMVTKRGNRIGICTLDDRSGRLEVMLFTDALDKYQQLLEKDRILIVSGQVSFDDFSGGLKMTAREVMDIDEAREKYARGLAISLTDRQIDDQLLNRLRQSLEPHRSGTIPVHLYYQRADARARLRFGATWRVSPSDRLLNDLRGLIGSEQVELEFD

Molecule: E. coli β subunit (from UniProt P0A988 1-366)
- pmol synthesis on oligodT-primed linear polydA, E. coli Pol III with β (lane 2) [1]: 35 pmol
- pmol synthesis on oligodT-primed linear polydA, E. coli Pol III without β (lane 1, baseline) [1]: 6 pmol

B1: Aquifex aeolicus tau subunit of DNA polymerase III (other)
chain: MNYVPFARKYRPKFFREVIGQEAPVRILKNAIKNDRVAHAYLFAGPRGVGKTTIARILAKALNCKNPSKGEPCGECENCREIDRGVFPDLIEMDAASNRGIDDVRALKEAVNYKPIKGKYKVYIIDEAHMLTKEAFNALLKTLEEPPPRTVFVLCTTEYDKILPTILSRCQRIIFSKVRKEKVIEYLKKICEKEGIECEEGALEVLAHASEGCMRDAASLLDQASVYGEGRVTKEVVENFLGILSQESVRSFLKLLLNSEVDEAIKFLRELSEKGYNLTKFWEMLEEEVRNAILVKSLKNPESVVQNWQDYEDFKDYPLEALLYVENLINRGKVEARTREPLRAFELAVIKSLIVKDIIPVSQLGSVVKETKKEEKKVEVKEEPKVKEEKPKEQEEDRFQKVLNAVDGKILKRILEGAKREERDGKIVLKIEASYLRTMKKEFDSLKETFPFLEFEPVEDKKKPQKSSGTRLF
notes: Recombinant, expressed in E. coli from pETAadnaX (pET24); also called A.ae. tau
- binding result [3]: binds

Next, values leading:

- pmol synthesis on oligodT-primed linear polydA, human Polδ with PCNA (lane 4) [2]: 24 pmol
- pmol synthesis on oligodT-primed linear polydA, human Polδ without PCNA (lane 3, baseline) [2]: 2 pmol
Molecule: human PCNA (from UniProt P12004 1-261)

- pmol synthesis on oligodT-primed linear polydA, T.th. Pol III with T.th. β (lane 6) [4]: 1.9 pmol
- pmol synthesis on oligodT-primed linear polydA, T.th. Pol III without T.th. β (lane 5, baseline) [4]: 0.6 pmol
B2: Thermus thermophilus β subunit, recombinant (protein)
chain: MNITVPKKLLSDQLSLLERIVPSRSANPLYTYLGLYAEEGALILFGTNGEVDLEVRLPAEAQSLPRVLVPAQPFFQLVRSLPGDLVALGLASEPGQGGQLELSSGRFRTRLSLAPAEGYPELLVPEGEDKGAFPLRTRMPSGELVKALTHVRYAASNEEYRAIFRGVQLEFSPQGFRAVASDGYRLALYDLPLPQGFQAKAVVPARSVDEMVRVLKGADGAEAVLALGEGVLALALEGGSGVRMALRLMEGEFPDYQRVIPQEFALKVQVEGEALREAVRRVSVLSDRQNHRVDLLLEEGRILLSAEGDYGKGQEEVPAQVEGPDMAVAYNARYLLEALAPVGDRAHLGISGPTSPSLIWGDGEGYRAVVVPLRVZ
